Data reported in PMC10786891, “Massively parallel profiling of RNA-targeting CRISPR-Cas13d”.
Changes are numbered by the printed parent chain. Numbers in names are those of the source.

B1: target 1 C7A,U10G (mixed)
RNA 1: CACCCGUGCAAAAAUGCAGGGGUCUAAAACUGAGCGGAUAACCUCUCUAUGG
RNA 2: GGGAAUGGAUCCACAUCUACGAAUUCGUACCAUAGAGAGGUGAUACGCUCACCGAGAUCGGAAGAGCACACGU
B2: target 1 insA 3' of 11,insA 3' of 2 (mixed)
RNA 1: B1 RNA 1
RNA 2: GGGAAUGGAUCCACAUCUACGAAUUCGUACCAUAGAGAGGUAUAUCCGCUCAACCGAGAUCGGAAGAGCACACGU
B3: target 1 insA 3' of 22,insU 3' of 1 (mixed)
RNA 1: B1 RNA 1
RNA 2: GGGAAUGGAUCCACAUCUACGAAUUCGUACACAUAGAGAGGUUAUCCGCUCAUCCGAGAUCGGAAGAGCACACGU
B4: target 1 insC 3' of 13,insA 3' of 4 (mixed)
RNA 1: B1 RNA 1
RNA 2: B2 RNA 2 with G40C, U41G, A42U, U50A, C51U, A52C
B5: target 1 A14G,U19A (mixed)
RNA 1: B1 RNA 1
RNA 2: B1 RNA 2 with U33A, A38G, G42U, A45C
B6: target 1 insA 3' of 21,insG 3' of 4 (mixed)
RNA 1: B1 RNA 1
RNA 2: B3 RNA 2 with A31C, C32A, U50G, C51U, A52C, U53A
B7: target 1 insA 3' of 12,insU 3' of 7 (mixed)
RNA 1: B1 RNA 1
RNA 2: B2 RNA 2 with U41A, A42U, C47U, G48C, C49G, U50C, C51U, A52C
B8: target 1 U8G,U10C (mixed)
RNA 1: B1 RNA 1
RNA 2: B1 RNA 2 with G42C, U44G, A45C
B9: target 1 insC 3' of 13,insG 3' of 11 (mixed)
RNA 1: B1 RNA 1
RNA 2: GGGAAUGGAUCCACAUCUACGAAUUCGUACCAUAGAGAGCGUGUAUCCGCUCACCGAGAUCGGAAGAGCACACGU
B10: target 1 insA 3' of 17,insA 3' of 15 (mixed)
RNA 1: B1 RNA 1
RNA 2: B9 RNA 2 with G37A, A38G, G39A, C40A, U42G, G43U
B11: target 1 insC 3' of 14,insA 3' of 12 (mixed)
RNA 1: B1 RNA 1
RNA 2: B9 RNA 2 with G39C, C40G, U42A, G43U
B12: target 1 A1G,C22U (mixed)
RNA 1: B1 RNA 1
RNA 2: B1 RNA 2 with C30U, G42U, A45C, A51G
B13: target 1 insA 3' of 13,insU 3' of 2 (mixed)
RNA 1: B1 RNA 1
RNA 2: B2 RNA 2 with G40A, U41G, A42U, A52U
B14: target 1 insC 3' of 18,insU 3' of 18 (mixed)
RNA 1: B1 RNA 1
RNA 2: B9 RNA 2 with G35C, A36U, C40A, U42G, G43U
B15: target 1 insA 3' of 19,insA 3' of 3 (mixed)
RNA 1: B1 RNA 1
RNA 2: B3 RNA 2 with A31C, C32A, A33U, U34A, C51A, A52C, U53A
B16: target 1 insA 3' of 15,insU 3' of 6 (mixed)
RNA 1: B1 RNA 1
RNA 2: B9 RNA 2 with G39A, C40G, G43U, U44A, A45U, U46C, C48U
B17: target 1 insC 3' of 18,insA 3' of 15 (mixed)
RNA 1: B1 RNA 1
RNA 2: B9 RNA 2 with G35C, A36G, G37A, A38G, G39A, C40A, U42G, G43U
B18: target 1 U8C,A14C (mixed)
RNA 1: B1 RNA 1
RNA 2: B1 RNA 2 with A38C, G42U, U44C, A45C
B19: target 1 insA 3' of 15,insC 3' of 10 (mixed)
RNA 1: B1 RNA 1
RNA 2: B9 RNA 2 with G39A, C40G, G43U, U44C
B20: target 1 C4U,G5C (mixed)
RNA 1: B1 RNA 1
RNA 2: B1 RNA 2 with G42U, A45C, G47C, C48U
B21: target 1 G5A,G17C (mixed)
RNA 1: B1 RNA 1
RNA 2: B1 RNA 2 with G35C, G42U, A45C, G47A
B22: target 1 insG 3' of 16,insU 3' of 2 (mixed)
RNA 1: B1 RNA 1
RNA 2: B2 RNA 2 with A38G, G39A, U41G, A42U, A52U
B23: target 1 insC 3' of 19,insG 3' of 3 (mixed)
RNA 1: B1 RNA 1
RNA 2: B3 RNA 2 with A31C, C32A, A33U, U34C, C51G, A52C, U53A
B24: target 1 C4G,G15U (mixed)
RNA 1: B1 RNA 1
RNA 2: B1 RNA 2 with G37U, G42U, A45C, C48G
B25: target 1 U3C,G12U (mixed)
RNA 1: B1 RNA 1
RNA 2: B1 RNA 2 with G40U, G42U, A45C, U49C
B26: target 1 insA 3' of 4,insG 3' of 2 (mixed)
RNA 1: B1 RNA 1
RNA 2: B2 RNA 2 with A42U, U43A, A44U, U45C, C47G, G48C, C49A, A52G
B27: target 1 U19G,C21U (mixed)
RNA 1: B1 RNA 1
RNA 2: B1 RNA 2 with C31U, U33G, G42U, A45C
B28: target 1 C6A,U8A (mixed)
RNA 1: B1 RNA 1
RNA 2: B1 RNA 2 with G42U, U44A, A45C, C46A
B29: target 1 C7G,G12A (mixed)
RNA 1: B1 RNA 1
RNA 2: B1 RNA 2 with G40A, G42U, A45G
B30: target 1 insU 3' of 22,insA 3' of 10 (mixed)
RNA 1: B1 RNA 1
RNA 2: B3 RNA 2 with A31U, U45A, C46U, G48C, C49G, U50C, C51U, A52C, U53A
B31: target 1 insA 3' of 22,insA 3' of 5 (mixed)
RNA 1: B1 RNA 1
RNA 2: B3 RNA 2 with C49A, U50C, C51U, A52C, U53A
B32: target 1 insA 3' of 15,insC 3' of 15 (mixed)
RNA 1: B1 RNA 1
RNA 2: B9 RNA 2 with G39C, C40A, U42G, G43U
B33: target 1 U3G,U10G (mixed)
RNA 1: B1 RNA 1
RNA 2: B1 RNA 2 with A45C, U49G
B34: target 1 G5U,G17U (mixed)
RNA 1: B1 RNA 1
RNA 2: B1 RNA 2 with G35U, G42U, A45C, G47U

Target: T1, EsCas13d, nuclease-dead (Eubacterium siraeum, UniProt B0MS50, R295A;H300A;R849A;H854A)
T1 sequence: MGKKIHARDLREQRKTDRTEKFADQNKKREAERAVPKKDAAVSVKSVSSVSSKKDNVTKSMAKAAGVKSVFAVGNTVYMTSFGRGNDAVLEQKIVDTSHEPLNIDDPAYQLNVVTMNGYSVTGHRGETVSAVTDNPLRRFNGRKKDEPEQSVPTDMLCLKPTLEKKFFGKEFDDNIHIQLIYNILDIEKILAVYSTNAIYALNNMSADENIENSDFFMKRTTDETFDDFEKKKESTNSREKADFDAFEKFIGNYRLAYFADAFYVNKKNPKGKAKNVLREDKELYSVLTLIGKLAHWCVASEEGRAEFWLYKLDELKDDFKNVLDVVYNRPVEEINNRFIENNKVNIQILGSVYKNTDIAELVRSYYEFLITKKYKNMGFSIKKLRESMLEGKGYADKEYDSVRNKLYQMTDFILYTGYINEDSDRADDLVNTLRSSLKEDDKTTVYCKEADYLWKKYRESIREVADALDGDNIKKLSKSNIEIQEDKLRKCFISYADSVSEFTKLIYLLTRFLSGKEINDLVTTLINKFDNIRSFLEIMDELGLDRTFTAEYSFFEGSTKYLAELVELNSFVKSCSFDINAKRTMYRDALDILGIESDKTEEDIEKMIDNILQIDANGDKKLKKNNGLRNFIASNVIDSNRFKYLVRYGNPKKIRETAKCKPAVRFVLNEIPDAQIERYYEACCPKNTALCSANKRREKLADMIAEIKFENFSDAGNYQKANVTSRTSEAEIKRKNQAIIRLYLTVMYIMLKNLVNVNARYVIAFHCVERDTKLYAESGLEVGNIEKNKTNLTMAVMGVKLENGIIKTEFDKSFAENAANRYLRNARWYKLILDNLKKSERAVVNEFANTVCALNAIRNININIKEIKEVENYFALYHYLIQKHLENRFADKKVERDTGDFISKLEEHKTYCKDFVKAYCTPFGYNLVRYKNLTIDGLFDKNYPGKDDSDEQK
Test: crRNA (strand 1, pre-loaded); Mg2+; 40 mM Tris-HCl pH 7.5, 150 mM NaCl, 6 mM MgCl2, 1 mM DTT, 0.1% Tween-20, 0.2 mg/ml BSA; 25 C; 10 min per concentration, then washed
Details: tags: His6-TwinStrep-SUMO cleaved; N-terminal SNAP kept (SNAP-Surface 488); label: 3' end held by stalled T7 RNA polymerase

Row | Binder | Kd [nM]
1 | B1 | 9.7 ± 0.5
2 | B2 | 16.1 ± 1.2
3 | B3 | 15 ± 0.9
4 | B4 | 4.86 ± 0.17
5 | B5 | 91 ± 17
6 | B6 | 14.3 ± 1.1
7 | B7 | 42 ± 5
8 | B8 | 19.8 ± 1.2
9 | B9 | 28.5 ± 3.4
10 | B10 | 8 ± 0.8
11 | B11 | 70 ± 14
12 | B12 | 13.9 ± 2.5
13 | B13 | 4.3 ± 0.4
14 | B14 | 57 ± 6
15 | B15 | 16.7 ± 1
16 | B16 | 11.3 ± 0.5
17 | B17 | 25.1 ± 1.2

Row | Binder | Kd [nM]
18 | B18 | 81 ± 14
19 | B19 | ~80
20 | B20 | 39 ± 4
21 | B21 | 80 ± 21
22 | B22 | 15.1 ± 1.3
23 | B23 | 26 ± 1.4
24 | B24 | 22 ± 8
25 | B25 | 19.4 ± 1.4
26 | B26 | 7.7 ± 0.6
27 | B27 | 11.1 ± 1.3
28 | B28 | 14.4 ± 0.4
29 | B29 | 15.4 ± 1.3
30 | B30 | 43 ± 5
31 | B31 | 7.2 ± 0.6
32 | B32 | 20.4 ± 1.6
33 | B33 | 35.2 ± 2.9
34 | B34 | 62 ± 8
